Results taken from PMC2577335.
pKd: −log10 of the molar value.

Tests used:
Assay in all cases: equilibrium binding isotherms of eEF2 on ribosomes
[1] = target: yeast ribosomes (salt-washed) with ribosomal protein L3 mutant S2T (S. cerevisiae) (UniProt P14126)
[2] = target: wild-type yeast ribosomes (salt-washed), with wild-type ribosomal protein L3 (S. cerevisiae) (UniProt P14126)
[3] = target: yeast ribosomes (salt-washed) with ribosomal protein L3 mutant S2A (S. cerevisiae) (UniProt P14126)
[4] = target: yeast ribosomes (salt-washed) with ribosomal protein L3 mutant S2K (S. cerevisiae) (UniProt P14126)

**Q.** Which results are given for “6 × His-tagged eEF2 (elongation factor 2) (from UniProt P32324 1-842) (natural protein)”?
**A.** pKd [1]: 7.68; pKd [2]: 7.73; pKd [3]: 7.70; pKd [4]: 7.69
